Source: patent publication US20070010430A1

What was measured:
MMP-9 = test: cell-based or functional assay
MMP-2 = test: cell-based or functional assay

decomposition-inhibition rate (type V collagen degradation, SDS-PAGE/western blot densitometry) (MMP-9): 90%
decomposition-inhibition rate (type V collagen degradation, SDS-PAGE/western blot densitometry) (MMP-2): 90%
Substance: shark cartilage extract obtained in Section (1) of Example 1 (water extract of blue shark cartilage, ethanol precipitate)
